Source: patent publication US20240148728

Molecular target: T1, recombinant SNAP-tagged NLRP1^DR purified from bacteria
T1 chain: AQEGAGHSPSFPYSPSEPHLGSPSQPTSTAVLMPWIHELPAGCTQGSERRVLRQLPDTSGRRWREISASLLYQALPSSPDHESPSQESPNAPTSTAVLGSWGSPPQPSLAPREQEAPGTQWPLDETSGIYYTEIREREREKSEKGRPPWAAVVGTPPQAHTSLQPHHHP

B1: p38β (protein)
chain: MSGPRAGFYRQELNKTVWEVPQRLQGLRPVGSGAYGSVCSAYDARLRQKVAVKKLSRPFQSLIHARRTYRELRLLKHLKHENVIGLLDVFTPATSIEDFSEVYLVTTLMGADLNNIVKCQALSDEHVQFLVYQLLRGLKYIHSAGIIHRDLKPSNVAVNEDCELRILDFGLARQADEEMTGYVATRWYRAPEIMLNWMHYNQTVDIWSVGCIMAELLQGKALFPGSDYIDQLKRIMEVVGTPSPEVLAKISSEHARTYIQSLPPMPQKDLSSIFRGANPLAIDLLGRMLVLDSDQRVSAAEALAHAYFSQYHDPEDEPEAEPYDESVEAKERTLEEWKELTYQEVLSFKPPEPPKPPGSLEIEQ
  phosphorylation in a recombinant kinase assay: both p38α/β can phosphorylate NLRP1^DR in a recombinant kinase assay

B2: ZAKα kinase (wild-type) (protein)
chain: MSSLGASFVQIKFDDLQFFENCGGGSFGSVYRAKWISQDKEVAVKKLLKIEKEAEILSVLSHRNIIQFYGVILEPPNYGIVTEYASLGSLYDYINSNRSEEMDMDHIMTWATDVAKGMHYLHMEAPVKVIHRDLKSRNVVIAADGVLKICDFGASRFHNHTTHMSLVGTFPWMAPEVIQSLPVSETCDTYSYGVVLWEMLTREVPFKGLEGLQVAWLVVEKNERLTIPSSCPRSFAELLHQCWEADAKKRPSFKQIISILESMSNDTSLPDKCNSFLHNKAEWRCEIEATLERLKKLERDLSFKEQELKERERRLKMWEQKLTEQSNTPLLPSFEIGAWTEDDVYCWVQQLVRKGDSSAEMSVYASLFKENNITGKRLLLLEEEDLKDMGIVSKGHIIHFKSAIEKLTHDYINLFHFPPLIKDSGGEPEENEEKIVNLELVFGFHLKPGTGPQDCKWKMYMEMDGDEIAITYIKDVTFNTNLPDAEILKMTKPPFVMEKWIVGIAKSQTVECTVTYESDVRTPKSTKHVHSIQWSRTKPQDEVKAVQLAIQTLFTNSDGNPGSRSDSSADCQWLDTLRMRQIASNTSLQRSQSNPILGSPFFSHFDGQDSYAAAVRRPQVPIKYQQITPVNQSRSSSPTQYGLTKNFSSLHLNSRDSGFSSGNTDTSSERGRYSDRSRNKYGRGSISLNSSPRGRYSGKSQHSTPSRGRYPGKFYRVSQSALNPHQSPDFKRSPRDLHQPNTIPGMPLHPETDSRASEEDSKVSEGGWTKVEYRKKPHRPSPAKTNKERARGDHRGWRNF
  phosphorylation in a recombinant kinase reaction (PhosTag SDS-PAGE, SNAP ligand fluorescence): recombinant ZAKα is sufficient to phosphorylate SNAP-tagged NLRP1^DR purified from bacteria
